For two molecules, Kd results are on record in PMC8486122, “Structural basis for antibody binding to adenylate cyclase toxin reveals RTX linkers as neutralization-sensitive epitopes” (PLoS Pathogens, 2021).

Usually Kd stands for the equilibrium constant for the complex coming apart. A lower Kd goes with higher affinity.

For experiment [1], the target named is T1, RTX751 (ACT residues 751–1706) (Bordetella pertussis (strain Tohama I / …, UniProt P0DKX7)).
T1 construct: also called full RTX domain; full RTX
The experiment is described as follows: SPR. The following applies: both partners purified.

In experiment [2] the target is T2, 123cap (cap fusion variant F5: RTX blocks I–III fused to the block V capping structure) (Bordetella pertussis (strain not named …, stabilised)).
T2 construct: source: E. coli BL21 DE3, purified (Ni-NTA, SEC); not shown: 8xHis, N-terminal, kept
T2 chain: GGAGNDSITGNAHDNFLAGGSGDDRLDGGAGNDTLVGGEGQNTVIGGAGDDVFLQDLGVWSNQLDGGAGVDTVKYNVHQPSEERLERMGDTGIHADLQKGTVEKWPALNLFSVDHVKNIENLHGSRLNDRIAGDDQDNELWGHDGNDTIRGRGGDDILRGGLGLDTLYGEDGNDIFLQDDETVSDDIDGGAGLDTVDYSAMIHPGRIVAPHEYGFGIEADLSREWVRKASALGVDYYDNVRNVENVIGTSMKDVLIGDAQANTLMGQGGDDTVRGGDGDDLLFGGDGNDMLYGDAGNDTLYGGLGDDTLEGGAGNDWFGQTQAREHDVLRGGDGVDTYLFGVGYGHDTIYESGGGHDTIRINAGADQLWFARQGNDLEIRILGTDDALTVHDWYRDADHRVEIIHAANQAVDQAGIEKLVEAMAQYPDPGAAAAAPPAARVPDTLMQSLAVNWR
The experiment is described as follows: SPR. The note with it: both partners purified.

B1: M2B10 Fab (Fab, V domains shown)
VH: EVQLQQSGAELVRPGTSVKVSCKASGYAFTNYLIEWVKQRPGQGLEWIGVINPGIGNTNYNEKFKGKATLTADKSSSTVYMQLSSLTSDDSAVYFCARGLNYGSSQHWYFDVWGAGTSVTVSS
VL: IVMTQSPAILSASLGERVTMTCTASSSVSSSYLHWYQQKPGSSPKLWIYSTSNLASGVPARFSGSGSGTSYSLTISSMEAEDAATYYCHQYHRSPPTFGAGTKLEIK
For B1, the figures for the dissociation constant (Kd) in experiment [1] and in experiment [2] were 0.75 nM and 0.6 nM, respectively.

B2: M1H5 Fab (Fab, V domains shown)
VH: EVNLVESGGDLVKPGGSLKLSCAASGFTFSSYGMSWVRQTPDKRLEWVATISSGGTYTYYPDSVKGRFTISRDNAKNTLYLQMSSLKSEDTAMYYCAREIMRGGGYYFDYWSQGTTLTVSS
VL: DIQMIQSTSSLSASLGDRVTISCRASQDISNYLNWYQQKPDGTVKLLIYYTSRLHSGVPSRFSGSGSGTDYSLTISNLEQEDIATYFCQQGNTLPYTFGGGTKLEIK
Turning to B2, the Kd in experiment [1] amounted to 0.8 nM; in experiment [2] it was 0.7 nM.
